Earlier results in article PMC5559722.
Read-outs that look alike come from different tables or passages of the source. Blank lines part the entries; values can stand above or below the substance they belong to.

Assays:
p97 N-domain [1] = biological target: p97 N-domain (UniProt P55072)
[2] = biological target: p97 C-terminal peptide (Homo sapiens) (UniProt P55072)
p97 N-domain [3] = biological target: p97 N-domain (UniProt P55072); remark: listed apart in the source
p97 N-domain [4] = biological target: p97 N-domain (UniProt P55072); remark: listed apart in the source
RNF31 PUB (Homo sapiens) = RNF31 PUB (Homo sapiens) (UniProt Q96EP0)
p97 N-domain [5] = biological target: p97 N-domain (UniProt P55072); assay: ITC

Kd (p97 N-domain [1]): 1 µM
Substance: p47 UBX (from UniProt Q9UNZ2)

Kd [2]: 50 µM
Substance: RNF31 PUB (from UniProt Q96EP0)

Kd (p97 N-domain [3]): 1 µM
Substance: FAF1 UBX (from UniProt Q9UNN5)

Kd (p97 N-domain [4]): 18 µM
Substance: NPL4 UBXL (from UniProt Q8TAT6)

Kd (RNF31 PUB (Homo sapiens)): 0.3 µM
Substance: OTULIN (from UniProt Q96BN8)

Kd (p97 N-domain [5]): 0.7 µM
Substance: OTU1 UBXL (from UniProt Q5VVQ6)
